Assays:
purified protein = substrate: Cc1cc2nc3c(=O)[nH]c(=O)nc-3n(C[C@H](O)[C@H](O)[C@H](O)COP(=O)(O)O)c2cc1C; assay: purified protein; assay type: biochemical, Geobacillus thermodenitrificans; settings: FMN added to octadecane/NADPH mixture, FMNH2 consumption followed at A455, pH 8.0, 60 °C, varied: cofactor
[1] = substrate: CCCCCCCCCCCCCCCCCC; assay: NADPH consumption, Lineweaver-Burk; assay type: biochemical, Geobacillus thermodenitrificans; settings: 10 mM NADPH, 0.015% Triton X-100, 50 mM Tris-HCl pH 8.0, 60 °C
From the text: NADPH consumption, Lineweaver-Burk on LadA (alkane monooxygenase)

Protein | Km (purified protein) | Km [1] | kcat [1] | kcat/Km [1]
LadA (alkane monooxygenase) (Geobacillus thermodenitrificans NG80-2) (protein) MTKKIHINAFEMNCVGHIAHGLWRHPENQRHRYTDLNYWTELAQLLEKGKFDALFLADVVGIYDVYRQSRDTAVREAVQIPVNDPLMLISAMAYVTKHLAFAVTFSTTYEHPYGHARRMSTLDHLTKGRIAWNVVTSHLPSADKNFGIKKILEHDERYDLADEYLEVCYKLWEGSWEDNAVIRDIENNIYTDPSKVHEINHSGKYFEVPGPHLCEPSPQRTPVIYQAGMSERGREFAAKHAECVFLGGKDVETLKFFVDDIRKRAKKYGRNPDHIKMFAGICVIVGKTHDEAMEKLNSFQKYWSLEGHLAHYGGGTGYDLSKYSSNDYIGSISVGEIINNMSKLDGKWFKLSVGTPKKVADEMQYLVEEAGIDGFNLVQYVSPGTFVDFIELVVPELQKRGLYRVDYEEGTYREKLFGKGNYRLPDDHIAARYRNISSNV | 3.3 ± 0.2 µM | 10360 ± 1600 µM | 0.0297 ± 0.0033 s⁻¹ | 2.83 M⁻¹ s⁻¹
LadA (alkane monooxygenase) (Geobacillus thermodenitrificans NG80-2; F10L/N133R) (protein) MTKKIHINALEMNCVGHIAHGLWRHPENQRHRYTDLNYWTELAQLLEKGKFDALFLADVVGIYDVYRQSRDTAVREAVQIPVNDPLMLISAMAYVTKHLAFAVTFSTTYEHPYGHARRMSTLDHLTKGRIAWRVVTSHLPSADKNFGIKKILEHDERYDLADEYLEVCYKLWEGSWEDNAVIRDIENNIYTDPSKVHEINHSGKYFEVPGPHLCEPSPQRTPVIYQAGMSERGREFAAKHAECVFLGGKDVETLKFFVDDIRKRAKKYGRNPDHIKMFAGICVIVGKTHDEAMEKLNSFQKYWSLEGHLAHYGGGTGYDLSKYSSNDYIGSISVGEIINNMSKLDGKWFKLSVGTPKKVADEMQYLVEEAGIDGFNLVQYVSPGTFVDFIELVVPELQKRGLYRVDYEEGTYREKLFGKGNYRLPDDHIAARYRNISSNV | 3.9 ± 0.3 µM | 2040 ± 200 µM | 0.0737 ± 0.01 s⁻¹ | 36.2 M⁻¹ s⁻¹
LadA (alkane monooxygenase) (Geobacillus thermodenitrificans NG80-2; F10L) (protein) MTKKIHINALEMNCVGHIAHGLWRHPENQRHRYTDLNYWTELAQLLEKGKFDALFLADVVGIYDVYRQSRDTAVREAVQIPVNDPLMLISAMAYVTKHLAFAVTFSTTYEHPYGHARRMSTLDHLTKGRIAWNVVTSHLPSADKNFGIKKILEHDERYDLADEYLEVCYKLWEGSWEDNAVIRDIENNIYTDPSKVHEINHSGKYFEVPGPHLCEPSPQRTPVIYQAGMSERGREFAAKHAECVFLGGKDVETLKFFVDDIRKRAKKYGRNPDHIKMFAGICVIVGKTHDEAMEKLNSFQKYWSLEGHLAHYGGGTGYDLSKYSSNDYIGSISVGEIINNMSKLDGKWFKLSVGTPKKVADEMQYLVEEAGIDGFNLVQYVSPGTFVDFIELVVPELQKRGLYRVDYEEGTYREKLFGKGNYRLPDDHIAARYRNISSNV | 3.1 ± 0.3 µM | 6980 ± 500 µM | 0.036 ± 0.005 s⁻¹ | 5.17 M⁻¹ s⁻¹

Source: publication PMC11310373, “Development of a microbial dewaxing agent using three spore forming bacteria” (Bioresources and Bioprocessing, 2024)
